Positions count from the first letter of the chain named. Each block holds one binder with its values, some of them ahead of it.
Target: human plasmin (human, UniProt P00747 97-810, limits assumed)
Experiment: cell-based or functional assay

human plasmin, sequence (P00747 97-810 limits assumed): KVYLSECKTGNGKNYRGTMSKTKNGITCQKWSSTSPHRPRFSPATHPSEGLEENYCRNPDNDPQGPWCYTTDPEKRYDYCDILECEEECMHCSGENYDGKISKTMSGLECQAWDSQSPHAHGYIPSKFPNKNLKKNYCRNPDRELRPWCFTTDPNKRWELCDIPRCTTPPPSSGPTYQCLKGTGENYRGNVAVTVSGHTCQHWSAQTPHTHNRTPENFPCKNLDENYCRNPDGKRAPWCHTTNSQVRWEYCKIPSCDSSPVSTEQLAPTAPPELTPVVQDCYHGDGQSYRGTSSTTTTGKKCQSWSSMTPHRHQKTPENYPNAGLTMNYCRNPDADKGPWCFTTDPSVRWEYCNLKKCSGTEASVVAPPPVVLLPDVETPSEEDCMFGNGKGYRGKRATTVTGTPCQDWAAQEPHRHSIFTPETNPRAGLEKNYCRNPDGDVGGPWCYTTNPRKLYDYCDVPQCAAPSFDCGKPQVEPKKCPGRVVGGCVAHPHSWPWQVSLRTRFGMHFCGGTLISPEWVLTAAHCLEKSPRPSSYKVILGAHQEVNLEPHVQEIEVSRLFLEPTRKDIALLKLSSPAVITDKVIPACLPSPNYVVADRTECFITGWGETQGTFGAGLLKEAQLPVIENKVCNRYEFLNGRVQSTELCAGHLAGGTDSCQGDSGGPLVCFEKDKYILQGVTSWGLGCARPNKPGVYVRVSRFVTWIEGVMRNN

IC50 (nM), inhibition of plasmin activity on chromogenic substrate S2251: 0.8 nM
B1: plasmin-inhibiting polypeptide comprising the amino acid sequence set forth in SEQ ID NO:4 (designed binder)
chain: NAEICLLPLDTGPCRARLLRYYYDRYTQSCRQFLYGGCEGNANNFYTWEACDDACWRIEKVPK

IC50 (nM), inhibition of plasmin activity on chromogenic substrate S2251: 1.8 nM
B2: plasmin-inhibiting polypeptide comprising the amino acid sequence set forth in SEQ ID NO:6 (designed binder)
chain: B1 chain with T11Y

IC50 (nM), inhibition of plasmin activity on chromogenic substrate S2251: 3.4 nM
B3: plasmin-inhibiting polypeptide comprising the amino acid sequence set forth in SEQ ID NO:5 (designed binder)
chain: NAEICLLPLDYGPCRARLLRYYYDRYTQSCRQFLYGGCEGNANNFYTWEACDDACWRIEK

IC50 (nM), inhibition of plasmin activity on chromogenic substrate S2251: 1.8 nM
B4: plasmin-inhibiting polypeptide comprising the amino acid sequence set forth in SEQ ID NO:3 (designed binder)
chain: B3 chain with Y11T

Source: patent US20140288000A1 (University of California, published 2014)
